Results from the NTF2 design screens of Basanta et al. (2020).

Experiment: protease stability score; higher = more stable; yeast display proteolysis, trypsin and chymotrypsin;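 note: relative to predicted unfolded state with 0 unfolded-like and 1 meaning tenfold more protease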
With “SREHKEAEDALRQWLETLRTGDERTMHELFDPNVRLHINGKEIHGREKVLTQLEHELKRFKNVRYELESIDITEHHVRVFGTSHVNGVEEKLEIVILKWDGRWRVQELYVHRV” the protease stability score was 1.67. Sequence “DEEDELLERTLKEVAHAWRTGDWRRIEEMFDPNARVDINGVNFVGREEMHRILHEMRIEIEDFKLRRKRIVDGRLELDGEMLGIFRQGDKERRHRSRVFIVILKIDGRWVFEEVRFH” has a protease stability score of 2.43. Sequence “SEDDSDLEEYLRLWVKAWMTGDEDLLRTLLDPHTRFQSHVNGKEVERHGMEVVSHWLRKFKNIRFEVHHVHVVNGVLYHETRVKFDGVRIETELNAIVVDGKNKFLNIHIK” has a protease stability score of 0.299. “DHHRKETEELAELFFENLLTGNWEIHEHLLDPDVKLEQGDKINVGRESYSEWLEYVKKHIRIRDWKIRHVHVFNGRVHLETEVHMEYGDKHHVVDMHISIDVINGRFKTVRIEIK” showed a protease stability score of 2.1. Sequence “SEEKKHVEEVARHILHLFLTGDEELWSNMADPNMRYLWNGREIVGRDLVREQNKELRTHSIEITHIEVFDGRARVRVNVDYQIGDKRINTHSLVIIVIINGRIESVFIKHD” has a protease stability score of 1.27. Sequence “DEEDEIAEKIMRIILRAFTTGDEETVEKLVDPHARLEFNGRETHGRESWFKLMHHLRIRRMRIHNERIHTQGDFSLSHVRIEFDGEINGKRVEDETRMEIRVIVVNGVVKSVSLSTE” has a protease stability score of 1.35. For “NEEEEESKWAYEEMIKVVKTGDEERLKELADPHTRVHMLVNGRLHNLHGREFLVLAWRLLGFDHLELKRMHVEVVNGRVHINLHGHVEINGRTHTLHIHIDAEKVDGRWIVRRVEIRSE”, the protease stability score was 1.5. For “SESHNFFKWALEVLLLSLRTGNERHLETLADPNMRVYINGREHHGRQMYFEMVFRWIEKFPNIQIHIHIEDTRVQGDKVHVDGEYQERFNGKTFVEKVHIIMLKIDGKWVLERDEII”, the protease stability score was 1.6. “SEDEEIAHHVVNLIMKIIRTGDEDNFKQLFDPHTRFTVGDKHHIGRETVIEFFRRWEEFYPNIQLELRLRDVKAYGDKVHVETEVIIRVGDKDLRFETTVYILKYNGRWFLKQEQFR” gave a protease stability score of 0.769. Work on “THEWREAREMIEVFLERIETGDEESLERLLDPHVRVHINGKDFHGRDEAIRKLIEMRHHSIHLKHINVQGDKVHNFGEWIVDFDGKKHTHKMILYISKVNGRWLIDSIHVE” yielded a protease stability score of 0.98. Sequence “TEDEDVLKEATRLFVEALKTGDWDHMRRLIDPNARVTQGDKEIHGMEDTVKIRRHLYEKWGVERVEMRIHDMEYQGDKLKVDMELQIGDKHKRIELVLRKVDGQWIIERIRYT” has a protease stability score of 0.528. For “DEDEERAQEMAKRLEDSLHTGDEETHQNLMDPHMRLRVNGKEFHGRENILHFLREWRIHHLDVRLRHIDDRGEYIIINSEVRVDGNIDGKRTELHTISEIILVKVDGRWMTDEFRFH”, the protease stability score was 0.72. “DEHDKETKEMLERFLEATETGNEKHSEELFDPRTRMEFDGVEIHGRETITKILTELWERADHIQFVLHDLRLVDGRVELDMRIRLHYDGQEYRRRSKVLLWKIDGRWVIRSERYE” showed a protease stability score of 1.99. In the case of “DEDRKHMEQAITLLKRLWETGNEEDILKNLDPNVRFEVGEWVDHGRRSIEIFRERFKNLRVHDTRHKDRDVVDGRAHLHGEYNGEINGRLINTHVILVIEKVNGRWYFESIHIH”, the protease stability score is reported as 1.19. “DEEDKMAEFFMRLIFRAWLTGDEEELEKFMDPNTKHNLDIDGRNDHQIGRHEIVHHLKHFWRRYDHVQVKIRKYHIQGEKAHLHGHLILFIDGVEIRHNIEIRVVVINGRVHSVTMHIH” showed a protease stability score of 1.79. Sequence “DEEKEEIRQFEETFVEAMKTGDEDVIRHLLDPHVRVDINGQTFHGREIVIEMVSRFPNVQVHIDDLDVQGNWAHSDVQLHQGDKYIRLHIDVTKIDGKWRITFLKFK” has a protease stability score of 1.45. For “DETHEEHNRFAEEYVHALHTGDEDRLRELMDPNVRFILIIDGKEVRLHGWELLLRVIREFWERFKNIRIFIRDIDLQGEKIRLETEVNVDGVDEHWRINMVVVNGRIKSLIIEQR”, the protease stability score was 2.32. Sequence “DQHERELEHAMEMLEKILKTGDERLFEHYADPHIRLEIEINGRRIDDHGRDLVLHLWRKMGADHMNIRSIDIQGDKLILNSTIEFNGQIHRSRFISLKVNGRWFIESVRLQDT” has a protease stability score of 0.907. Sequence “DEEEELLRKLVEELHKALRTGNEHVLRHLIDPHVRIDIDGRELHGREQFVELWKRLVDELRIHDMKIRSIKTQGDFVHSSTELDLEYGDKKFRLTTELDVRSIDGRVKHVSIRYH” has a protease stability score of 1.53. In the case of “DEEDERSKEAMEHFLENEITGDWKRLHELFDPNARMHINGREYHGREEVTNKFWEHNYRMGVKHVEVRDLEVINGRVHLHVEQDVGEFHIELEVVIKKVNGRWLIEETEIHVR”, the protease stability score is reported as 0.987. “DERLEIARRVVELSIRMLHTGNEEVVRHLLDPNYRLHINGVHLIGMEEFSKWLKELRFDLEHVQMHHITDINGRLFVIGEIIGRLHYDGVTVREERESIWFIEKVDGKWIIKEVELR” showed a protease stability score of 1.18. “DELEDDSRRAMETLIEIEKTGDWDLMYQLADPHVKLDINGRIIHGRDEFERRIHEHLTELGIKHHHVKHFQIRIVDGRMEVRLDGILRFNGKDLDVEIVLIVLKVNGRWLLEHSSVKYK” gave a protease stability score of 1.38. “SEEKDDANRHLEIFFHYFITGDESSMLREADPHVQVEQGDKHIHGMEEWVTEWSKREKELGAKHIKLEDKRIHLINGRVHLILDLIIEVGDKRRRMILIVTIDKINGRWVMSQMKLEVR” showed a protease stability score of 1.2. With “HEDEELSEKWLEDILRDHETGNEHRLRELFDPDARSHVGDKKIIGREDWSRALKEFIEKFPGVRIEIRHHENDIVGDKVRLDVTIILNFNGVEHEMKVTLILRKYNGRWRIREIRIR” the protease stability score was 1.25. “SKEDRDAKWAFEHLMHLLHTGDEEKINENLDPNARNEFDGRELHGREIITEILRNLGIKHLHIHSVEFISQGDKLFSNVDGNNIFDGREVHTHLHFIIEKFNGKWNIKSIHIKIT” gave a protease stability score of 1.19. For “DEDEENIRKEVEIFKHLLETGNEQEMSKLADPNTRFYYGDKTIHGREEMIKFLHEEWRHLGVKHNEYRVKEMRSINGRAIIHGELIWKSENEIIHRDVLIIARKVDGKWVSESVHVH”, the protease stability score was 1.23. In the case of “DQEHEDARNVLHLLIRSWRTGDEHTSEHLMDPDVKIIYNGRVHVGREDAHRFVEEARVHHIVLHDSRVQGDYIRLDIRVEGEINGRRDRTEVDMVVLKINGRWMIQSIKFK”, the protease stability score is reported as 1.38. “SELIKVSRHAMEILVHSWLTGDWERSEELVDPHARTQYGDKHVHGMELFEEIFKEELDRVKGMRLEIIIRRVDLQGNKAEVDGEFRNHVNGVDVRRRMHVELVVVNGVVESTSIRIQ” showed a protease stability score of 0.453. In the case of “DEQKNWAKIMLELLEHAWRTGDEHTLQELADPNTRLNIGDKDIIGWDLILTVLIEIRMSFSYRLEEVHTFENHVVLRTRLIRVLHFDGKSTEFVKETELYIEKVDGRWILRHIVIK”, the protease stability score is reported as 1.29. Work on “DEMEEKIRTHMSLLVEYLDTGDEEITKSMLDPNTMAFYGDKLHIGREEAEEILREIRVHHLDIKRIDHQGDKIRVDGEMDGIVNGKRYRTRVEIFSTKINGRWIIEQRVIR” yielded a protease stability score of 1.04. For “DEHRKHAEDIFRLWLKAVKTGDEEHILDLMDPHVRLIILVGDKEIHLHGREEMKKENERLRHEWGVDRIRLEITRLDVQGDKIHSDGIDIFNGRNFRVKHHMKVVNGRVEEIKIEFE”, the protease stability score was 0.462. Sequence “SEDDERSEKAAEKWLHNFVTGDFKEMSDNLDPNTRLHVDGKDFVGMELVLKIFEDLWDHLGVDHVLINDSHVHVIDGKLHSHLDVTEEVNGRRRRVEIIIIAVKVNGRWRQKEVHIMFR” has a protease stability score of 0.794. In the case of “DEHEHQADHMQEILIRSHETGDEDLIREFFDPHARLDIGDKHNIGRESIKRFIHELLRILGLDNITLRVRHKTIQGDKIITHLELEVNGKRLEVIIHNEKINGQWSVRKVEWR”, the protease stability score is reported as 1.98. Work on “SELNHSVRRAIEIFERVSKTGDEREIRDLADPNVKLDFDGREHHGWEWFVRFMKEIRIKDHRIRDVELIGEFVIIHGELEMEINGVDIRTEVEFYVFKINGKWYLKRLIIR” yielded a protease stability score of 1.92. “SEEYKRVKHMFDLWLHALITGDEDLMEELADPHVRHDINGVKNHGWETLIDREREWRIKRIDHRRSDAVNGRMHSDVHIDGIFDGKRHETDVTIHMIVVNGKFKTVEIRYH” showed a protease stability score of 1.08. “DEDDELSRKAREFTSEVLRTGDEHSLLRMADPNTRNIVGNKEEHGWEHFEHFVREHWRRFGITNVDVKLEDLRVVDGRIEADMRVRVNGVERTWHFLIRKIDGKWRMESIEIR” gave a protease stability score of 0.416. “DEDEKKLHKLSDELEHIWLTGDEDRWLELADPNTKVIINGKEVHGRENVAREIKKFLEDLGIDHFYIESSLAIDGRTDLNGQIHVNGRTLHVRIINHEFNGRVKRVEIHIR” showed a protease stability score of 2.09. For “EEDSEMAREISESILRMIKTGDERHFMRLLDPHVKIDINGREHHGRHAATHQLRETSEKFGFDRITVRLESVHVQGEYVNINGRVEQGDFHLTLHFHFRKIDGRWVMDSVHIV”, the protease stability score was 0.559. In the case of “DKENHLMRELTRLIVDYINTGDWKEFRKLADPHVRIVIEVGDKRIERHGMEDWLKLVRDRLEEIRTHIEVHDVEAQGDKAHLDGRIRLIVGEFEIVIESRIKVVSIDGKLKEISVHMV”, the protease stability score is reported as 1.48. “DEEEKSLRFAIKMMEELIQTGDEDLFERLLDPDTRLRVGDKTFHGREQVLKWFEEWLKRMGADHVELRLHDMRVVGDKLDLDVEYRQYVGDKDIHDRRHLIIIKVNGRWYFKEVRIL” showed a protease stability score of 1.67. In the case of “DEHHRLARDFWKMLADILKTGDEEIFRDLADPDTRMIQGDKLYHGRELISRELVRQVKEWRLHDFELHHIDEVNGRLLVDSRLVGHFDGRHYLMHVRIFMHKVDGRWVLHEMHYE”, the protease stability score is reported as 1.38. With “DDLEHSSETFEKLWLESVFTGDWRSLLEMLDPHARLVINGRDFIGRELVKETLKEFLDRVPNMTLKLEDREVHIQGDKARIELHTRLEVGDKTVDTRIELIVNKIDGRWLLESQIIRIH” the protease stability score was 1.08. “SEDEETIEDFVKWFVRALKTGDEDTINEMIDPHVLLHINGKDYHGRELVWRHFEELGIKHTELRHLHTYNGRVELESRLIVDGRVHKVHFHARKVNGRWTVTKVEIR” gave a protease stability score of 2.61. Work on “SREEEIMRRFLELLILAFRTGDEDTYLKMLDPRVRLEINGRDLHGRETVREHYKDERDELGVSQFHIWVRDLRVQGDKIETEGHLEFDGRWLDIHFHAHFVDGRLKSFRIEIR” yielded a protease stability score of 1.32. For “SELEEKAREMLTLLHKFWRTGNEEFFTKLFDPDMKLTVGDKEYIGMEDVTEYFVKWTREARLTDQETTDIEYYDGRLRIHVEMDVKQGDKRRKLESIIILLKVDGRWFATKVEIR”, the protease stability score was 0.928. Work on “DKEREHLKQLAEIIIHLWHTGDEEILMHLADPNTRLIIEWNGQESQYHGREEMYTIIRRIYEELGADHIHIEDHDVQGDKVIIHSRLEQGDKRVELHLIVVFVNGRLKEMHIHINDK” yielded a protease stability score of 2.34. With “DEEERLLEKSIKEEIERNVTGDFRRIHELFDPNMRLDINGQEYMGRDLMVERWQKFKNVRSHIELRHYEIINGKAHVDGHLILYIDGVELRTRTRIIYVKINGRWSIQEIDIT” the protease stability score was 1.38. Work on “DELEEETRFILEYLRHSWKTGDWRLESRMADPDVRLDVDGKHLHGREMVSHFAKRLSERVDHSEFIERDLRIQGNKIELHGELILRFNGVEVHRELHLHISKVNGRWVLKDIRIG” yielded a protease stability score of 0.831. Work on “TKEEELAHRALHEWINDINTGNEEEFKELVDPNARMLVDGRHHHGREHVINVFIHLIRKVKNLTVDLDEIEIQGDKVTVIGILRVDGREIHITIHSRKINGRWHFEDIVWE” yielded a protease stability score of 1.6. Work on “DEDERLEEEALRLLRHSLHTGDERIITELADPHARLEFNGREFHGREDFLRFIVHMRVRHEEEKSVRLQGDKVDVNWHMVVLFDGQLRRQDVRLILWKFNGRWHIKSIRIE” yielded a protease stability score of 1.5.
